Assay results taken from publication PMC12593533, “Unravelling tandem repeat-mediated mutagenesis drive rapid diversification of KPC enzymes: emergence of blaKPC-263 and enhanced resistance to ceftazidime-avibactam” (eBioMedicine, 2025).

Tests used:
Experiment in all cases: purified protein
[1] = test system: C[C@@H](O)[C@H]1C(=O)N2C(C(=O)O)=C(SCCN=CN)C[C@H]12
[2] = test system: C[C@@H](O)[C@H]1C(=O)N2C(C(=O)O)=C(S[C@@H]3CN[C@H](C(=O)N(C)C)C3)[C@H](C)[C@H]12
[3] = test system: CC(C)(O/N=C(\C(=O)N[C@@H]1C(=O)N2C(C(=O)[O-])=C(C[n+]3ccccc3)CS[C@H]12)c1csc(N)n1)C(=O)O

## KPC-2 (Klebsiella pneumoniae)
[1]
  Km: 380 µM
  kcat: 199 s⁻¹
  kcat/Km: 523000 M⁻¹ s⁻¹
[2]
  Km: 420 µM
  kcat: 112 s⁻¹
  kcat/Km: 268000 M⁻¹ s⁻¹
[3]
  Km: 580 µM
  kcat: 42.9 s⁻¹
  kcat/Km: 74000 M⁻¹ s⁻¹
